Legend:
HeLa Kyoto [1] = experiment: melting temperature (median over replicates), in situ; higher = more thermally stable
HeLa Kyoto [2] = experiment: solubility change mitosis vs G1/S (difference of NP-40 vs SDS log2 ratios) (log2 ratio difference); higher = more soluble in mitosis
HeLa Kyoto [3] = experiment: solubility in G1/S (NP-40 vs SDS abundance) (log2 ratio); higher = more soluble; conditions: cell cycle stage: G1/S
HeLa Kyoto [4] = experiment: thermal stability score vs G1/S (z-score of summed log2 fold changes over temperatures); higher = more thermally stable than in G1/S
[5] = cell cycle stage: early G1 (4.5 h after nocodazole release)
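Wherever melting temperature (median over replicates), in situ is given: HeLa Kyoto cells synchronized by double thymidine or nocodazole block, proteins quantified by TMT10plex mass spectrometry, three independent biological replicates.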
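Wherever solubility change mitosis vs G1/S (difference of NP-40 vs SDS log2 ratios) is given: synchronized HeLa Kyoto cells (double thymidine block for G1/S, nocodazole release for mitosis), protein amounts in NP-40 versus SDS lysates quantified by mass spectrometry, three biological replicates.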
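Wherever solubility in G1/S (NP-40 vs SDS abundance) is given: HeLa Kyoto cells arrested at G1/S by double thymidine block, proteins quantified by TMT10plex mass spectrometry in mild NP-40 versus SDS extracts, three biological replicates.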
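Wherever thermal stability score vs G1/S (z-score of summed log2 fold changes over temperatures) is given: synchronized HeLa Kyoto cells, proteins quantified by TMT10plex mass spectrometry, three biological replicates, mitosis taken 0.5 h after nocodazole release, G1/S directly after double thymidine block.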

Sequence of CREBBP (chain, as listed by the source): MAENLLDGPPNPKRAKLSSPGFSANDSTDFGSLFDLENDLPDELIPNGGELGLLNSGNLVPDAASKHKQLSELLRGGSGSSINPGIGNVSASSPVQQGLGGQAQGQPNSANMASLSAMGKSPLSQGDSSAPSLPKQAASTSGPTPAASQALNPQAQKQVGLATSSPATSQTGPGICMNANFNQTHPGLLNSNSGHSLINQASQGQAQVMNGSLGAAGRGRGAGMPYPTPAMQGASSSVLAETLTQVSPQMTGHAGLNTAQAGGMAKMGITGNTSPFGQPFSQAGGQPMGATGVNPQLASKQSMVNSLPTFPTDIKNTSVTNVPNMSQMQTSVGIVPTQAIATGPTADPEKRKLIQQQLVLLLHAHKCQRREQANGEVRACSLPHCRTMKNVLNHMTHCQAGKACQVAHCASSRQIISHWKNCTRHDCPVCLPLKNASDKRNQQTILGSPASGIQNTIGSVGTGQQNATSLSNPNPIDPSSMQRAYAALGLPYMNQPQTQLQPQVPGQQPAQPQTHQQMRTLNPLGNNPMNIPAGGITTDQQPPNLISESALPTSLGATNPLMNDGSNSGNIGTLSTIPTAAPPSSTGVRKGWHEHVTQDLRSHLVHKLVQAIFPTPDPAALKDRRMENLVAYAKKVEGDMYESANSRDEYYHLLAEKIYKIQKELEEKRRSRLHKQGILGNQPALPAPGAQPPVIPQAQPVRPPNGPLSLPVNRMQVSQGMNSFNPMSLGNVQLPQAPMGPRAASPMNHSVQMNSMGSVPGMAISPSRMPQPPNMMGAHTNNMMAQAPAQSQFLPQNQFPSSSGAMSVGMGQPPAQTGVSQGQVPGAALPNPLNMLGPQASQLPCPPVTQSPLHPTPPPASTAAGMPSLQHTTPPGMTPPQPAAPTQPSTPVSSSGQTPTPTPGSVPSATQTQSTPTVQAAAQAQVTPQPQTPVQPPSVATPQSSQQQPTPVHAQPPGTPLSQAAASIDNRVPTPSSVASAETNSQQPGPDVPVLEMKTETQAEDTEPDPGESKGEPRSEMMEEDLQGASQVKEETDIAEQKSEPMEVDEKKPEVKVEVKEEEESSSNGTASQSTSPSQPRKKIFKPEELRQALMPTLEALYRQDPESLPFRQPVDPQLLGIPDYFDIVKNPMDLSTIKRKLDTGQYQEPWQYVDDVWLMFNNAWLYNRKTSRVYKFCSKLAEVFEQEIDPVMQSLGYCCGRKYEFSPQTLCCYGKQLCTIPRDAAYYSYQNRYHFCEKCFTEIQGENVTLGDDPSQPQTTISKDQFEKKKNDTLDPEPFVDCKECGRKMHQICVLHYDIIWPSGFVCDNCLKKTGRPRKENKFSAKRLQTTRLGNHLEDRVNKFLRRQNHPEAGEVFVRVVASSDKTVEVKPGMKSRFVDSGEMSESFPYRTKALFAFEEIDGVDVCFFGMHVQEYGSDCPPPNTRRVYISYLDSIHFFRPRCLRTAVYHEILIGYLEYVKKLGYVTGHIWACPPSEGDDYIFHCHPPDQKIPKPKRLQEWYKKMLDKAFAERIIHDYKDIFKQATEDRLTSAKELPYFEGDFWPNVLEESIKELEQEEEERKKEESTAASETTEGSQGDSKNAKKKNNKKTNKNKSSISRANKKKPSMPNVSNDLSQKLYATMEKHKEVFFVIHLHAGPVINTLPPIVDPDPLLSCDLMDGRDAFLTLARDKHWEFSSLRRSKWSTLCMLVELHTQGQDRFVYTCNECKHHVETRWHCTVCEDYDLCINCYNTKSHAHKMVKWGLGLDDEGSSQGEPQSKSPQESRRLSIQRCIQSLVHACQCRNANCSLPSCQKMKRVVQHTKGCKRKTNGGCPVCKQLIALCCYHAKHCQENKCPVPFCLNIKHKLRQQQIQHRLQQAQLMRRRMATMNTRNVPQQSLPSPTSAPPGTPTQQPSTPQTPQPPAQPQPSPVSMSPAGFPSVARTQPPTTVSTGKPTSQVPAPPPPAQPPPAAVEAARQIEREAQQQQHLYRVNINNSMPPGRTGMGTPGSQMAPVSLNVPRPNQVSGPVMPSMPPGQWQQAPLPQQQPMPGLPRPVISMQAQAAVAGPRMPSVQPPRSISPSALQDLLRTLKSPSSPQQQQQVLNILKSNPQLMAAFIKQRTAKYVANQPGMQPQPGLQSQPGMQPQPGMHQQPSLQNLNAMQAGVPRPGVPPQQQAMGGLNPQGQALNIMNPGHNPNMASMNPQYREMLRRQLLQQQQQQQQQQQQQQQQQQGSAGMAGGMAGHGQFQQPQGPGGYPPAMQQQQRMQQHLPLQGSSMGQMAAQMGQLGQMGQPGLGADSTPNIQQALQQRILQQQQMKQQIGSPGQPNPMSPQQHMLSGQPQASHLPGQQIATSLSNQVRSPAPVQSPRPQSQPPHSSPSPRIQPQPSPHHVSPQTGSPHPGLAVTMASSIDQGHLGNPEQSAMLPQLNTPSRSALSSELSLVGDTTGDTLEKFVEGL
Sequence of PPIE (chain, as listed by the source): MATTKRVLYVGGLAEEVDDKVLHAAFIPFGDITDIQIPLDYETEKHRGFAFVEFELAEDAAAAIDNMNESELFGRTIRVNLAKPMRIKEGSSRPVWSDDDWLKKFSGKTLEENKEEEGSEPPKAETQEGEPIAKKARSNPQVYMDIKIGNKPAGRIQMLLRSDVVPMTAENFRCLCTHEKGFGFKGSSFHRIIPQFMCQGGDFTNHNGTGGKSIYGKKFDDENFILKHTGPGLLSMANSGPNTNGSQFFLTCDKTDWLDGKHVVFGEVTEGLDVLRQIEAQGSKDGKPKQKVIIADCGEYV

Substance	melting temperature (HeLa Kyoto [1]; cell cycle stage: G1/S) [°C]	melting temperature (HeLa Kyoto [1]; cell cycle stage: mitosis) [°C]	solubility change mitosis (log2) (HeLa Kyoto [2])	solubility in G1/S (log2) (HeLa Kyoto [3])	thermal stability score (HeLa Kyoto [4]; [5])	thermal stability score (HeLa Kyoto [4]; cell cycle stage: mitosis)
MVKIVTVKTQAYQDQKPGTSGLRKRVKVFQSSANYAENFIQSIISTVEPAQRQEATLVVGGDGRFYMKEAIQLIARIAAANGIGRLVIGQNGILSTPAVSCIIRKIKAIGGIILTASHNPGGPNGDFGIKFNISNGGPAPEAITDKIFQISKTIEEYAVCPDLKVDLGVLGKQQFDLENKFKPFTVEIVDSVEAYATMLRSIFDFSALKELLSGPNRLKIRIDAMHGVVGPYVKKILCEELGAPANSAVNCVPLEDFGGHHPDPNLTYAADLVETMKSGEHDFGAAFDGDGDRNMILGKHGFFVNPSDSVAVIAANIFSIPYFQQTGVRGFARSMPTSGALDRVASATKIALYETPTGWKFFGNLMDASKLSLCGEESFGTGSDHIREKDGLWAVLAWLSILATRKQSVEDILKDHWQKYGRNFFTRYDYEEVEAEGANKMMKDLEALMFDRSFVGKQFSANDKVYTVEKADNFEYSDPVDGSISRNQGLRLIFTDGSRIVFRLSGTGSAGATIRLYIDSYEKDVAKINQDPQVMLAPLISIALKVSQLQERTGRTAPTVIT [PGM1]	57.6	58.3	-0.0698	0.266	-0.26	0.494
CREBBP	52	53.2	0.0153	-0.265	-0.935	-0.841
MAPRLCSISVTARRLLGGPGPRAGDVASAAAARFYSKDNEGSWFRSLFVHKVDPRKDAHSTLLSKKETSNLYKIQFHNVKPEYLDAYNSLTEAVLPKLHLDEDYPCSLVGNWNTWYGEQDQAVHLWRFSGGYPALMDCMNKLKNNKEYLEFRRERSQMLLSRRNQLLLEFSFWNEPQPRMGPNIYELRTYKLKPGTMIEWGNNWARAIKYRQENQEAVGGFFSQIGELYVVHHLWAYKDLQSREETRNAAWRKRGWDENVYYTVPLVRHMESRIMIPLKISPLQ [NIPSNAP1]	53.9	54.3	-0.0766	0.0548	-0.403	-2.28
MNIVVEFFVVTFKVLWAFVLAAARWLVRPKEKSVAGQVCLITGAGSGLGRLFALEFARRRALLVLWDINTQSNEETAGMVRHIYRDLEAADAAALQAGNGEEEILPHCNLQVFTYTCDVGKRENVYLTAERVRKEVGEVSVLVNNAGVVSGHHLLECPDELIERTMMVNCHAHFWTTKAFLPTMLEINHGHIVTVASSLGLFSTAGVEDYCASKFGVVGFHESLSHELKAAEKDGIKTTLVCPYLVDTGMFRGCRIRKEIEPFLPPLKPDYCVKQAMKAILTDQPMICTPRLMYIVTFMKSILPFEAVVCMYRFLGADKCMYPFIAQRKQATNNNEAKNGI [RDH10]	53.4	52.9	-0.104	-0.308	-3.18	-3.77
MESAIAEGGASRFSASSGGGGSRGAPQHYPKTAGNSEFLGKTPGQNAQKWIPARSTRRDDNSAANNSANEKERHDAIFRKVRGILNKLTPEKFDKLCLELLNVGVESKLILKGVILLIVDKALEEPKYSSLYAQLCLRLAEDAPNFDGPAAEGQPGQKQSTTFRRLLISKLQDEFENRTRNVDVYDKRENPLLPEEEEQRAIAKIKMLGNIKFIGELGKLDLIHESILHKCIKTLLEKKKRVQLKDMGEDLECLCQIMRTVGPRLDHERAKSLMDQYFARMCSLMLSKELPARIRFLLQDTVELREHHWVPRKAFLDNGPKTINQIRQDAVKDLGVFIPAPMAQGMRSDFFLEGPFMPPRMKMDRDPLGGLADMFGQMPGSGIGTGPGVIQDRFSPTMGRHRSNQLFNGHGGHIMPPTQSQFGEMGGKFMKSQGLSQLYHNQSQGLLSQLQGQSKDMPPRFSKKGQLNADEISLRPAQSFLMNKNQVPKLQPQITMIPPSAQPPRTQTPPLGQTPQLGLKTNPPLIQEKPAKTSKKPPPSKEELLKLTETVVTEYLNSGNANEAVNGVREMRAPKHFLPEMLSKVIILSLDRSDEDKEKASSLISLLKQEGIATSDNFMQAFLNVLDQCPKLEVDIPLVKSYLAQFAARAIISELVSISELAQPLESGTHFPLFLLCLQQLAKLQDREWLTELFQQSKVNMQKMLPEIDQNKDRMLEILEGKGLSFLFPLLKLEKELLKQIKLDPSPQTIYKWIKDNISPKLHVDKGFVNILMTSFLQYISSEVNPPSDETDSSSAPSKEQLEQEKQLLLSFKPVMQKFLHDHVDLQVSALYALQVHCYNSNFPKGMLLRFFVHFYDMEIIEEEAFLAWKEDITQEFPGKGKALFQVNQWLTWLETAEEEESEEEAD [EIF4G2]	48.4	48.3	0.0198	0.402	1.01	3.88
MSNAKERKHAKKMRNQPTNVTLSSGFVADRGVKHHSGGEKPFQAQKQEPHPGTSRQRQTRVNPHSLPDPEVNEQSSSKGMFRKKGGWKAGPEGTSQEIPKYITASTFAQARAAEISAMLKAVTQKSSNSLVFQTLPRHMRRRAMSHNVKRLPRRLQEIAQKEAEKAVHQKKEHSKNKCHKARRCHMNRTLEFNRRQKKNIWLETHIWHAKRFHMVKKWGYCLGERPTVKSHRACYRAMTNRCLLQDLSYYCCLELKGKEEEILKALSGMCNIDTGLTFAAVHCLSGKRQGSLVLYRVNKYPREMLGPVTFIWKSQRTPGDPSESRQLWIWLHPTLKQDILEEIKAACQCVEPIKSAVCIADPLPTPSQEKSQTELPDEKIGKKRKRKDDGENAKPIKKIIGDGTRDPCLPYSWISPTTGIIISDLTMEMNRFRLIGPLSHSILTEAIKAASVHTVGEDTEETPHRWWIETCKKPDSVSLHCRQEAIFELLGGITSPAEIPAGTILGLTVGDPRINLPQKKSKALPNPEKCQDNEKVRQLLLEGVPVECTHSFIWNQDICKSVTENKISDQDLNRMRSELLVPGSQLILGPHESKIPILLIQQPGKVTGEDRLGWGSGWDVLLPKGWGMAFWIPFIYRGVRVGGLKESAVHSQYKRSPNVPGDFPDCPAGMLFAEEQAKNLLEKYKRRPPAKRPNYVKLGTLAPFCCPWEQLTQDWESRVQAYEEPSVASSPNGKESDLRRSEVPCAPMPKKTHQPSDEVGTSIEHPREAEEVMDAGCQESAGPERITDQEASENHVAATGSHLCVLRSRKLLKQLSAWCGPSSEDSRGGRRAPGRGQQGLTREACLSILGHFPRALVWVSLSLLSKGSPEPHTMICVPAKEDFLQLHEDWHYCGPQESKHSDPFRSKILKQKEKKKREKRQKPGRASSDGPAGEEPVAGQEALTLGLWSGPLPRVTLHCSRTLLGFVTQGDFSMAVGCGEALGFVSLTGLLDMLSSQPAAQRGLVLLRPPASLQYRFARIAIEV [POP1]	52.2	51.8	0.246	-0.778	1.22	-1.05
MGSRIKQNPETTFEVYVEVAYPRTGGTLSDPEVQRQFPEDYSDQEVLQTLTKFCFPFYVDSLTVSQVGQNFTFVLTDIDSKQRFGFCRLSSGAKSCFCILSYLPWFEVFYKLLNILADYTTKRQENQWNELLETLHKLPIPDPGVSVHLSVHSYFTVPDTRELPSIPENRNLTEYFVAVDVNNMLHLYASMLYERRILIICSKLSTLTACIHGSAAMLYPMYWQHVYIPVLPPHLLDYCCAPMPYLIGIHLSLMEKVRNMALDDVVILNVDTNTLETPFDDLQSLPNDVISSLKNRLKKVSTTTGDGVARAFLKAQAAFFGSYRNALKIEPEEPITFCEEAFVSHYRSGAMRQFLQNATQLQLFKQFIDGRLDLLNSGEGFSDVFEEEINMGEYAGSDKLYHQWLSTVRKGSGAILNTVKTKANPAMKTVYKFAKDHAKMGIKEVKNRLKQKDIAENGCAPTPEEQLPKTAPSPLVEAKDPKLREDRRPITVHFGQVRPPRPHVVKRPKSNIAVEGRRTSVPSPEQPQPYRTLRESDSAEGDEAESPEQQVRKSTGPVPAPPDRAASIDLLEDVFSNLDMEAALQPLGQAKSLEDLRAPKDLREQPGTFDYQRLDLGGSERSRGVTVALKLTHPYNKLWSLGQDDMAIPSKPPAASPEKPSALLGNSLALPRRPQNRDSILNPSDKEEVPTPTLGSITIPRPQGRKTPELGIVPPPPIPRPAKLQAAGAALGDVSERLQTDRDRRAALSPGLLPGVVPQGPTELLQPLSPGPGAAGTSSDALLALLDPLSTAWSGSTLPSRPATPNVATPFTPQFSFPPAGTPTPFPQPPLNPFVPSMPAAPPTLPLVSTPAGPFGAPPASLGPAFASGLLLSSAGFCAPHRSQPNLSALSMPNLFGQMPMGTHTSPLQPLGPPAVAPSRIRTLPLARSSARAAETKQGLALRPGDPPLLPPRPPQGLEPTLQPSAPQQARDPFEDLLQKTKQDVSPSPALAPAPDSVEQLRKQWETFE [DENND1A]		53.6	-0.0536	0.079	0.0881	1.02
PPIE	49	51.7	0.13	0.351	1.18	2.29

— the supplement of paper PMC5998384
